In patent US7794711B2, “Agent for treating chondroma and chondrosarcoma” (Chugai Seiyaku Kabushiki Kaisha, priority 2002, dated 2010):
Residue numbers refer to the chain shown, from its start.

What was measured:
[1] = tested on: Human chondrosarcoma cell HTB-94; test: Viability of cells (Premix WST-1 Cell Proliferation Assay System); assay type: cell-based; details: 20 μM, 2 hours before the addition of anti-PTHrP MoAb (FIG. 2)
Procedure: Human chondrosarcoma cell HTB-94 (ATCC) was suspended in Dulbecco's Modified Eagle's Medium (DMEM) containing 10% FBS, L-glutamine, penicillin-streptomycin (all are available from GIBCO-BRL), and was cultured and proliferated at 37° C. under 5% CO2 wet condition.
That is, reduction ratio of tetrazolium salt (WST-1) by viable cells was determined from the increase in OD450, and it was considered as the index of the number of viable cells.

PTHrP (1-34) [2] = molecular target: T1, PTHrP (1-34) (Homo sapiens, UniProt P12272); test: ELISA measurement of antigen binding ability; set-up: coated with 100 μl of human PTHrP(1-34) (Peptide Research Institute); purchased Peptide Research Institute; details: expressed in COS-7 cells; H chain humanized version a
Procedure: The ELISA plate for antigen binding measurement was prepared as follows. Each well of a 96 well plate for ELISA was coated with 100 μl of human PTHrP(1-34) (Peptide Research Institute) adjusted to 1 μg/ml concentration by the coating buffer. […] After the plate was incubated at room temperature and washed with PBS-Tween20, 100 μl of alkaline phosphatase (TAGO) conjugated goat anti-man IgG antibody was added. After the plate was incubated at room temperature and washed with PBS-Tween20, 1 mg/ml of a substrate solution (Sigma104, p-nitrophenylphosphate, SIGMA) was added, and, next, 405 nm absorption was measured with a micro plate reader (Bio Rad).
The ELISA plate for antigen binding measurement was prepared as follows. Each well of a 96 well plate for ELISA was coated with 100 μl of human PTHrP(1-34) adjusted to 1 μg/ml concentration by the coating buffer. After blocking with 200 μl of the dilution buffer, the culture supernatant of the COS-7 cells in which hybrid antibody or humanized antibody was expressed or the purified hybrid antibody or the humanized antibody was stepwise diluted and added to each well. After the plate was incubated at room temperature and washed with PBS-Tween20, 100 μl of alkaline phosphatase (TAGO) conjugated goat anti-man IgG antibody was added. After the plate was incubated at room temperature and washed with PBS-Tween20, 1 mg/ml of a substrate solution (Sigma104, p-nitrophenylphosphate, SIGMA) was added, and 405 nm absorption was then measured on a micro plate reader (Bio Rad).

HTB-94 cells [3] = test: TUNEL staining; assay type: cell-based, human; details: two days
Procedure: TUNEL staining was performed using Apoptag Peroxidase Kit (Intergen Company). […] Subsequently, the cells were incubated with a TdT reaction mixture (TdT solution+[…] and dATP) at 37° C. for 60 minutes, and further incubated with peroxidase conjugated anti-dioxygenin antibody at room temperature for 30 minutes. The cells were stained with DAB and then counterstained with Mayer's hematoxylin and microscopically observed at 200-fold, 400-fold and 600-fold magnification.

HTB-94 cells [4] = test: RT-PCR; assay type: cell-based, human; details: 100 μg/ml, two days, vs control
Procedure: PCR of cDNA was performed using Ready-to-Go PCR beads (Pharmacia) and primers for human Bcl-2, Bax, Ihh, ColX (α1) and β-actin amplification (12.5 pmol(s) each).
Amplification was performed using Perkin-Elmer/Cetus DNA Thermal Cycler (TAKARA SHUZO) on the conditions of 30 cycles each of 94° C., 0.5 min; 55° C., 0.5 min; 72° C., 0.5 min and last extension reaction at 72° C. for 7 minutes.
Electrophoresis of the obtained PCR product (10 μL) was carried out on a 4% agarose gel, and stained and observed with ethidium bromide.

HTB-94 cells [5] = test: Immunocytochemistry using anti-collagen type X antibody; assay type: cell-based, human; details: particularly at high concentration, seven days
Procedure: Immunocytochemistry was performed by streptavidin-peroxidase method using histofine SAB-PO kit ([…]). […] Subsequently, the cells were transferred to 3% H2O2 methanol to block endogenous peroxidase activity, washed with PBS (pH 7.2), and then blocked with PBS containing normal 10% serum (secondary antibody) of the congeneric origin in order to make the background minimum and incubated with anti-collagen type X antibody (primary antibody) at room temperature for 2 hours. Afterwards the cells were washed with PBS, incubated with the secondary antibody at room temperature in a wet chamber for 20 minutes, and incubated with peroxidase conjugated streptavidin ([…]) for 20 minutes under the same conditions. Finally, coloring reaction was performed with 3,3-diaminobenzidine tetrahydrochloride (DAB) reagent (Dojindo). The cells were counterstained with hematoxylin and microscopically observed at 200-fold and 400-fold magnification.

HTB-94 cells [6] = test: Western blotting of HTB-94 cell lysates; assay type: cell-based, human
Procedure: In the experiment with regard to the following collagen type-X, the cells were treated by anti-PTHrP MoAb for further five days (for total seven days). All the cell lysates (50 μg as protein) of the above-mentioned cells were separated by SDS-PAGE using 12% gel and blotted on a nitrocellulose film (Bio-Rad Laboratories). The blocked film was incubated together with an anti-procaspase-3 antibody (Wako Pure Chemical) diluted to 1/100, an anti-PARP antibody, an anti-Bcl-2 antibody and an anti-Bax antibody (both from Santa Cruz Biotechnology), an anti-collagen type X antibody (Calbiochem-Novabiochem Corporation) and a peroxidase conjugated secondary antibody (Amersham) diluted to 1/1000.
Here, PARP (poly(ADP-ribose) polymerase) is an enzyme important for the survival in a cell, and caspase-3 causes cleavage of this PARP.
Detection was performed using ECL Western blotting detection system (Amersham). Each blot was further re-detected by ECL using anti-o-actin antibody (Santa Cruz Biotechnology) and the peroxidase conjugated secondary antibody.

PTHrP (1-34) [7] = molecular target: T1, PTHrP (1-34); test: Screening of hybridomas by solid phase RIA of culture supernatant; assay type: binding; set-up: purchased Peninsula; details: hybridoma culture supernatant
Procedure: Hybridomas #23-57-154 and #23-57-137-1 which produce monoclonal antibody to human PTHrP (1-34) were produced as follows (Sato, K. et al., J. Bone Miner. Res. 8, 849-860, 1993). The amino acid sequence of human PTHrP (1-34) is shown in the SEQ ID No. 75.
Screening of hybridomas was performed by measuring and selecting the existence of a PTHrP recognizing antibody by applying solid phase RIA method to the culture supernatant of the wells where growth was recognized in HAT culture medium. Hybridomas were collected from the wells where binding ability with an antibody was recognized, suspended to the culture medium prepared by adding OPI-supplement (Sigma) to the RPMI-1640 culture medium containing FCS 15%, and the hybridomas was simplified by the limiting dilution method.

HTB-94 cells [8] = test: DNA fragmentation assay; assay type: cell-based, human; details: two days
Procedure: That is, the cells were dissolved in a dissolution buffer, DNA was isolated, extracted with an organic solvent and ethanol precipitation was carried out. The precipitated DNA was centrifuged (12,000 g, 10 min) and then washed with 80% ethanol, and dissolved in 30 μl of TE buffer. Each sample (10 μl) was subjected to electrophoresis on a 1.2% agarose gel, and stained with ethidium bromide.

[9] = 0, 10, 30, 50, 100, and 200 μg/ml, two days

DEVD-CHO was tested, and the “effect of caspase-3 inhibitor on the effect of anti-PTHrP MoAb on cell viability” value [1] was “inhibited the effect of this anti-PTHrP MoAb”.

B1: m/hMBC1Laλ: hybrid antibody: L chain mouse FR1, 2/human FR3, 4 (version a); humanized H chain (antibody, V domains shown)
VH: QVQLVESGGGVVQPGRSLRLSCAASGFTFSSYGMSWVRQAPGKGLEWVATISSGGSYTYYPDSVKGRFTISRDNSKNTLYLQMNSLRAEDTAVYYCARQTTMTYFAYWGQGTLVTVSS
VL: QLVLTQSSSASFSLGASAKLTCTLSSQHSTYTIEWYQQQPLKPPKYVMDLKQDGSHSTGDGIPDRFSGSSSGAERYLTISSLQSEDEADYYCGVGDTIKEQFVYVFGGGTKLTVL
In the case of B1, the “PTHrP binding ability compared with chimeric antibody” value (PTHrP (1-34) [2]) is reported as “equivalent to chimera #23-57-137-1 antibody”.

B2: m/hMBC1Ldλ: hybrid antibody: L chain mouse FR1, 2/human FR3, 4 (version d, 87 isoleucine); humanized H chain (antibody, V domains shown)
VH: B1 VH
VL: B1 VL with Y91I
B2 was tested, and the “PTHrP binding ability compared with chimeric antibody” value (PTHrP (1-34) [2]) was “equivalent to chimera #23-57-137-1 antibody”.

B3: hmmMBC1L(λ): hybrid antibody: L chain human FR1/mouse FR2, 3, 4; humanized H chain (antibody, V domains shown)
VH: B1 VH
VL: QLVLTQSPSASASLGASVKLTCTLSSQHSTYTIEWYQQQPLKPPKYVMDLKQDGSHSTGDGIPDRFSGSSSGADRYLSISNIQPEDEAMYICGVGDTIKEQFVYVFGGGTKVTVL
With B3 the “PTHrP binding ability compared with chimeric antibody” value (PTHrP (1-34) [2]) was “equivalent to chimera #23-57-137-1 antibody”.

B4: anti-PTHrP MoAb: mouse monoclonal antibody to human PTHrP (1-34) prepared from hybridoma #23-57-137-1 (FERM BP-5631) (antibody, V domains shown)
VH: EVQLVESGGDLVKPGGSLKLSCAASGFTFSSYGMSWIRQTPDKRLEWVATISSGGSYTYYPDSVKGRFTISRDNAKNTLYLQMSSLKSEDTAMFYCARQTTMTYFAYWGQGTLVTVSA
VL: QLVLTQSSSASFSLGASAKLTCTLSSQHSTYTIEWYQQQPLKPPKYVMDLKQDGSHSTGDGIPDRFSGSSSGADRYLSISNIQPEDEAMYICGVGDTIKEQFVYVFGGGTKVTVLGQP
With B4 the “frequency of appearance of cells in apoptosis (stained brown)” value (HTB-94 cells [3]; 0, 10, 100, or 200 μg/ml) was “increased depending on the concentration”, the “morphological changes characteristic of apoptosis” value (HTB-94 cells [3]; after treatment) was “contraction and round outline were also recognized” and the “amount of expression of Bax (mRNA)” value (HTB-94 cells [4]) was “increased”. The “amount of expression of Bcl-2 (mRNA)” value (HTB-94 cells [4]) was “decreased”, the “cell morphology (differentiation)” value (HTB-94 cells [5]) was “a number of cells which roundly expanded were observed” and the “85 kDa fragment of PARP” value (HTB-94 cells [6]; [9]) was “increased depending on the concentration”. The “Bax (protein)” value (HTB-94 cells [6]; [9]) was “increased as the concentration of anti-PTHrP MoAb increased”, the “Bcl-2 (protein)” value (HTB-94 cells [6]; [9]) was “decreased as the concentration of anti-PTHrP MoAb increased” and the “procaspase-3 (35 kDa)” value (HTB-94 cells [6]; 100 μg/ml, two days) was “decreased”. The “procaspase-3 (35 kDa)” value (HTB-94 cells [6]; 200 μg/ml, two days) was “decreased”, the “anti-PTHrP MoAb concentration at maximum collagen type X” value (HTB-94 cells [6]; total seven days) was 50 µg/mL and the “collagen type X (protein)” value (HTB-94 cells [6]; treated vs untreated cells, total seven days) was “more collagen type X in the cells treated with Anti-PTHrP MoAb than in untreated cells”. The “binding ability with PTHrP (1-34)” value (PTHrP (1-34) [7]) was “strong binding ability”, the “fragmentation of DNA in nucleosome specific to apoptosis” value (HTB-94 cells [8]; 10 μg/ml) was “observed” and the “fragmentation of DNA in nucleosome specific to apoptosis” value (HTB-94 cells [8]; 200 μg/ml) was “observed”.
